Measurements published in paper PMC5099872 (Cell Research, 2016).

B1: Sre1-CTD WY mutant, residues 628-896, W702D/Y703D (domain or fragment, Schizosaccharomyces pombe, UniProt Q9UUD1 628-896, looked up)
chain: QHSKSSVHAELRELPECTANLIENSHADDVFSPNMVERLWVLAKCTRDSAQMSDSIISSLSDVLVLSPLEVLASDDAADLLDALLMESLSRKVEISEIEEIISLCPKNSSIIRHALLAKLVLFPENTADSLNEVLAAYKNTLDLCSQDKRKQSSVLKINLSKLFTLHSCLSLALQRLGYGDVSKRMYQEIFVPDSDADITPLSFIISWTALNTFAPICTSPKENDVVEKMAMYVRTAIGTLKIQDLKLSRKLINSCIDIGSRLQEDLGY
B2: Sre1-CTD ΔC-tail variant, residues 628-876, C644S/C672S (domain or fragment, Schizosaccharomyces pombe, UniProt Q9UUD1 628-876, looked up)
chain: QHSKSSVHAELRELPESTANLIENSHADDVFSPNMVERLWVLAKSTRDSAQMSDSIISSLSDVLVLSPLEVLASWYAADLLDALLMESLSRKVEISEIEEIISLCPKNSSIIRHALLAKLVLFPENTADSLNEVLAAYKNTLDLCSQDKRKQSSVLKINLSKLFTLHSCLSLALQRLGYGDVSKRMYQEIFVPDSDADITPLSFIISWTALNTFAPICTSPKENDVVEKMAMYVRTAIGTLKIQDLKLS

Columns and labels:
[1] = biological target: the molecule itself; test: AUC
[2] = biological target: the molecule itself; test: crystal structure

Row | Protein | stoichiometry N [1] | stoichiometry N [2]
1 | B1 | 2 | –
2 | B2 | – | 2
